Patent US20210388105A1 (ELPISCIENCE SUZHOU BIOPHARMA, published 2021)

Experiments:
Assay in all cases: FACS, mutant-EGFP on HEK293F cells
[1] = molecular target: T1, KW27-5 (human CD39 mutant, C-terminal EGFP) (human, UniProt P49961 1-510)
T1 construct: expressed on HEK293F cells; not shown: C-terminal EGFP fusion (vector pCMV3-GFPSpark)
T1 chain: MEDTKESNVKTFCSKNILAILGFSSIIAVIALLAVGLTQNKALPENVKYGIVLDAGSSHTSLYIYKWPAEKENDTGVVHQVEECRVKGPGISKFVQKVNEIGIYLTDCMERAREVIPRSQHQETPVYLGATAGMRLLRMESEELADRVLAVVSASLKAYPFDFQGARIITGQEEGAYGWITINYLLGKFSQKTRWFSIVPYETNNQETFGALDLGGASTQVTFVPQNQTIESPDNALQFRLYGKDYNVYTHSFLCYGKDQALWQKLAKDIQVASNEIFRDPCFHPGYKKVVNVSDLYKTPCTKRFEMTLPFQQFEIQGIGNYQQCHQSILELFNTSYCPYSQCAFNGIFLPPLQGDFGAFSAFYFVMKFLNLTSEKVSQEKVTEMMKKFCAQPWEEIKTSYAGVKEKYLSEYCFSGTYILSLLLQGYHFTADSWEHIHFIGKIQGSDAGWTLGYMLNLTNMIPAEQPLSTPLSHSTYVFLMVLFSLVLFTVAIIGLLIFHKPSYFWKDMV
Description: (§1) Briefly, the human CD39 mutants were generated by gene synthesis and then cloned into an expression vector pCMV3-GFPSpark. The vectors containing the validated mutated sequences were prepared and transfected into HEK293F cells. Three days post transfection, the cells were collected to testing EGFP for transgene expression. A range of dosages of antibodies (start from 100 nM, 3-folds dilution, 11 points) were tested on the 20 generated mutants and stained by AlexFluor647 labelled anti-hIgG by FACS. Antibody binding was descripted as relative binding which is derived from AlexFluor647 intensity divided by GFP intensity.

[2] = molecular target: T2, KW27-4 (human CD39 mutant, C-terminal EGFP) (human, UniProt P49961 1-510)
T2 construct: expressed on HEK293F cells; not shown: C-terminal EGFP fusion (vector pCMV3-GFPSpark)
T2 chain: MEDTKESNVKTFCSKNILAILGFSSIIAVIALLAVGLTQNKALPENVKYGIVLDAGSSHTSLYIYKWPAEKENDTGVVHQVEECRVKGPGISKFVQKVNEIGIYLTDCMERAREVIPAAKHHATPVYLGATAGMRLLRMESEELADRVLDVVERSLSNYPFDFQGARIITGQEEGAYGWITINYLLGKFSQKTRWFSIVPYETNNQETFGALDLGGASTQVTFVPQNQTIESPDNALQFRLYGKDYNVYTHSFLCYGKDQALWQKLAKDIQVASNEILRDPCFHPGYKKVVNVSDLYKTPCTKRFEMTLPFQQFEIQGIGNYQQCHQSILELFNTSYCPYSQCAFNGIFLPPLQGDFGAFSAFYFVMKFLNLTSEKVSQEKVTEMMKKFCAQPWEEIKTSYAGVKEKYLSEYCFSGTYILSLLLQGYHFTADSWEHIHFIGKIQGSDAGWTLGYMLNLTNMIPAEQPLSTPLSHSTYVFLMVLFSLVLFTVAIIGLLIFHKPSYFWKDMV
Description: as §1

[3] = molecular target: T3, KW27-12 (human CD39 mutant, C-terminal EGFP) (human, UniProt P49961 1-510)
T3 construct: expressed on HEK293F cells; not shown: C-terminal EGFP fusion (vector pCMV3-GFPSpark)
T3 chain: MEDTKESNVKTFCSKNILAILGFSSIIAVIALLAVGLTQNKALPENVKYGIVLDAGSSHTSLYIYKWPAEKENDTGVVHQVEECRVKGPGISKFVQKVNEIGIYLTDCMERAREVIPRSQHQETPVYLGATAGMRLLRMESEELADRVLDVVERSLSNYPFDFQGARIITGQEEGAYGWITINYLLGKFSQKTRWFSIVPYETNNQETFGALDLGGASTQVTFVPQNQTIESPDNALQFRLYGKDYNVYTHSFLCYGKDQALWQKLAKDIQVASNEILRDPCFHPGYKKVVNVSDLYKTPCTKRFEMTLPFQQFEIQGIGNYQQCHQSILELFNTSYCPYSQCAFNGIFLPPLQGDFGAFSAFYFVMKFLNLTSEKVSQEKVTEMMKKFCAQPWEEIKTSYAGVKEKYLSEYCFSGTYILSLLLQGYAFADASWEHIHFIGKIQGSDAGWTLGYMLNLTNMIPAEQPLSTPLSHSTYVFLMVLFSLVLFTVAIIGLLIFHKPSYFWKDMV
Description: as §1

[4] = molecular target: T4, KW27-1 (human CD39 mutant, C-terminal EGFP) (human, UniProt P49961 1-510)
T4 construct: expressed on HEK293F cells; not shown: C-terminal EGFP fusion (vector pCMV3-GFPSpark)
T4 chain: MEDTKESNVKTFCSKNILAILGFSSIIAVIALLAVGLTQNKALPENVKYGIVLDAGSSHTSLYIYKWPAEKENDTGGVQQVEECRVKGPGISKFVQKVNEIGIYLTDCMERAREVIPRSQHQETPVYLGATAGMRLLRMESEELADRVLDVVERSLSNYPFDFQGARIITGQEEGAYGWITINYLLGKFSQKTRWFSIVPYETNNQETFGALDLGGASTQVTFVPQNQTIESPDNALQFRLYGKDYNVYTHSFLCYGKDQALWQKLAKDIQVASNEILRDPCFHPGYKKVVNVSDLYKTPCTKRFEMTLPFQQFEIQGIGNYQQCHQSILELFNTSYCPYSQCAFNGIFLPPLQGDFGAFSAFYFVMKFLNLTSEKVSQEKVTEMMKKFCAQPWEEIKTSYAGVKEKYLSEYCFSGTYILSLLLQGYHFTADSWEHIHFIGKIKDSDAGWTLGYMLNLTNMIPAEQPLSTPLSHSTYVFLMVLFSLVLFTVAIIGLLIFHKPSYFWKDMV
Description: as §1

Measured: binding result

B1: Antibody 9-8B (antibody, V domains shown)
VH: QIQLVQSGPELKKPGETVKISCKASGYTFTHYGMNWVKQAPGKGLKWMGWINTYTGELTYADDFKGRFAFSLETSASTAYLQINNLKNEDTATYFCARRAYYRYDYVMDYWGQGTSVTVSS
VL: DIVMTQSQKFMSTSVGDRVSVTCKASHNVGTNVAWYQQKPGQSPKALIYSASYRYSGVPGRFTGSGSGTDFTLTISNVQSEDLAEYFCHQYNNYPYTFGGGTKLEIK
binds: all assays above

B2: hu23.H5L5 (antibody, V domains shown)
VH: QVQLVQSGAEVKKPGASVKVSCKASGYNLKDTFLHWVRQAPGQGLEWMGRIDPANGNIKYDPKFQGRVTITADTSANTAYMELISLRSEDTAVYYCANSPYYYGSGYRIFDVWGQGTTVTVSS
VL: QIVLTQSPATLSLSPGERATLSCSAFSSVNYMHWYQQKPGQAPRLLIYTTSNLASGIPTRFSGSGSGTSYTLTISSLEPEDFAVYYCQQRSTYPFTFGQGTKLEIK
notes: humanized c23
binds: all assays above

B3: Antibody T895 (antibody, V domains shown)
VH: EVQLQQSGPELVKPGASVKMSCKASGYTFTDYNMHWVKQSHGRTLEWIGYIVPLNGGSTFNQKFKGRATLTVNTSSRTAYMELRSLTSEDSAAYYCARGGTRFAYWGQGTLVTVSA
VL: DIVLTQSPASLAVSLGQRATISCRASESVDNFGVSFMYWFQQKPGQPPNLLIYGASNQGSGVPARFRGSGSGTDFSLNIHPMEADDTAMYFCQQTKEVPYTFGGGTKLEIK
notes: also called 31895
binds: all assays above

B4: c34 (antibody, V domains shown)
VH: EIQVQQSGPELVKPGASVKVSCKASGYSFTDYNMYWVKQSHGKSLEWIGFIDPYNGYTSYNQKFKGKATLTIDKSSSTAFMHLNSLTSEDSAVYYCAIYGYDDAYYFDYWGQGTTLTVSS
VL: QIVLTQSPAIMSASPGEKVTITCSATSSVSYMHWFRQKPGTSPKLWIYSTSNLASGVPARFSGSGSGTSYSLTISRMAAEDAATYYCQQRITYPFTFGSGTKLEIT
notes: its making is not described; also called chimeric antibody c34
binds: all assays above

B5: c35 (antibody, V domains shown)
VH: EVRLQQSGAELVKPGASVKLSCTASGFNIEDTYVHWMKQRPEQGLEWIGRIDPAIDNSKYDPKFQGKATITAVSSSNTAYLQLSSLTSEDTAVYYCALYDGYNVYAMDYWGQGTSVTVSS
VL: DIVMTQAAFSNPVTLGTSASISCRSSKNLLHSNGITYLYWYLQRPGQSPQLLIYRASTLASGVPNRFSGSESGTDFTLRISRVEAEDVGVYYCAQLLELPHTFGGGTKLEIK
notes: its making is not described; also called chimeric antibody c35
binds: all assays above
